The target in data set [1] is nonC4Δ15 with R171T (maize (Zea mays)). Briefly: native gel or EMSA; native PAGE (6% or 7%) of purified recombinant proteins, 100 V, 4 °C; Coomassie staining or in-gel NADP-ME activity assay; oligomeric state from mobility against native markers. For orientation: Mobility shift assays separate free from complexed probe on a gel.
Data set [2] concerns the target Cyt1-NADP-ME from maize extracts (maize (endogenous in maize etiolated leaves and roots)). As to the kind of experiment: native gel or EMSA; native PAGE (7%) of maize extracts of etiolated leaves and roots; in-gel NADP-ME activity assay, active bands excised and identified by mass spectrometry; mobility compared with the recombinant proteins.
Data set [3] concerns the target nonC4Δ15 with N172D (maize (Zea mays)). As to the kind of experiment: native gel or EMSA; native PAGE (6% or 7%) of purified recombinant proteins, 100 V, 4 °C; Coomassie staining or in-gel NADP-ME activity assay; oligomeric state from mobility against native markers.
Data set [4] deals with nonC4Δ15 with I148F (maize (Zea mays)). The description is as above.
For data set [5], the target named is nonC4I148F mutant of maize nonC4-NADP-ME (maize (Zea mays)). The data set is described as above.
Data set [6] has as its target nonC4R208G mutant of maize nonC4-NADP-ME (maize (Zea mays)). The data set is described as above.
Data set [7] concerns the target Cyt2-NADP-ME from maize extracts (maize (endogenous in maize etiolated leaves and roots)). As to the kind of experiment: native gel or EMSA; native PAGE (7%) of maize extracts of etiolated leaves and roots; in-gel NADP-ME activity assay, active bands excised and identified by mass spectrometry; mobility compared with the recombinant proteins.
In data set [8] the target is maize nonC4-NADP-malic enzyme, recombinant wild type (maize (Zea mays)). Briefly: AUC; sedimentation velocity of recombinant proteins; 20 mM Tris-HCl pH 7.0 or 8.0, 5 mM MgCl2; 1.1 mg/ml (16 uM); 20 °C, 35,000 rpm; c(s) model in SEDFIT; self-association, dimers and tetramers.
The target is the same in data set [9]. As to the kind of experiment: native gel or EMSA; native PAGE (6% or 7%) of purified recombinant proteins, 100 V, 4 °C; Coomassie staining or in-gel NADP-ME activity assay; oligomeric state from mobility against native markers.
For data set [10] the target is unchanged. Briefly: cryo-EM structure; single-particle cryo-EM of His-tagged proteins, 0.2 to 0.5 mg/ml, 20 mM Tris-HCl, 5 mM MgCl2, 40 mM pyruvate, 2 mM NADP, pH 8.0; oligomeric state from the numbers of particles.
Data set [11] has the same target. As to the kind of experiment: native gel or EMSA; native PAGE (6% or 7%) of purified recombinant proteins, 100 V, 4 °C; Coomassie staining or in-gel NADP-ME activity assay; oligomeric state from mobility against native markers. The source holds these as a separate data set.
Data set [12] addresses nonC4N172D mutant of maize nonC4-NADP-ME (maize (Zea mays)). The data set is described as above.
The target of data set [13] is nonC4Δ15 with R208G (maize (Zea mays)). Described as above.
Data set [14] deals with the molecule itself. Briefly: AUC; sedimentation velocity of recombinant proteins; 20 mM Tris-HCl pH 7.0 or 8.0, 5 mM MgCl2; 1.1 mg/ml (16 uM); 20 °C, 35,000 rpm; c(s) model in SEDFIT; self-association, dimers and tetramers.
Data set [15] deals with the molecule itself. Briefly: native gel or EMSA; native PAGE (7%) of maize extracts of etiolated leaves and roots; in-gel NADP-ME activity assay, active bands excised and identified by mass spectrometry; mobility compared with the recombinant proteins.

Several values for one entry are separate records, joined by “and”; a condition that tells them apart may be missing. Equal entries are not always repeated.

Broadly, the stoichiometry N is the number of molecules, sites or subunits per partner or assembly. Regarding nonC4Δ15 with R171T (enzyme), in [1], the stoichiometry N was 4 and 2. As for “Cyt1-NADP-ME from maize extracts (enzyme)”, the stoichiometry N in [2] turned out to be 4. For the molecule nonC4Δ15 with N172D (enzyme), the stoichiometry N in [3] was determined as 4.

For nonC4Δ15 with I148F (enzyme), the stoichiometry N in [4] is 4 and 2.

Consider “nonC4I148F mutant of maize nonC4-NADP-ME (enzyme)”, for which the stoichiometry N in data set [5] was determined as 2. In the case of “nonC4R208G mutant of maize nonC4-NADP-ME (enzyme)”, the stoichiometry N in data set [6] is 4. Turning to “Cyt2-NADP-ME from maize extracts (enzyme)”, in data set [7], the stoichiometry N amounted to 4. As for “maize nonC4-NADP-malic enzyme, recombinant wild type”, the stoichiometry N was 2 and 4 in [8]; 4 in [9]; 2 in data set [10]; 2 in data set [11]. Further, the percent tetramers in [10] was 10%. As for “nonC4N172D mutant of maize nonC4-NADP-ME (enzyme)”, the stoichiometry N in data set [12] stood at 4.

For nonC4Δ15 with R208G (enzyme), the stoichiometry N in data set [13] is 4.

B1: maize C4-NADP-malic enzyme, recombinant wild type (enzyme, maize (Zea mays), UniProt P16243 63-636, looked up)
chain: MVSNAETETEKEQEEAAAASEELPVMPWATSVASGYTLLRDPHHNKGLAFTEEERDGHYLRGLLPPAVLSQELQIKKFMNTLRQYQTPLQRYIAMMNLQETDERLFYKLLIDNVVELLPFVYTPTVGEACQKYGSIFGRPQGLYVSLKDKGKVLEVLRNWPHRNIQVICVTDGERILGLGDLGCQGMGIPVGKLALYTALGGVDPSVCLPITIDVGTNNEFLLNDEFYIGLRQKRATGEEYDELIEEFMSAVKQFYGEKVLIQFEDFANHNAFDLLEKYSKSHLVFNDDIQGTASVVLAGLLAALKMVGGTLAEQTYLFLGAGEAGTGIAELIALEISKQTNAPIEECRKKVWLVDSKGLIVDSRKGSLQPFKKPWAHEHEPLKTLYDAVQSIKPTVLIGTSGVGRTFTKEIIEAMSSFNERPIIFSLSNPTSHSECTAEQAYTWSQGRSIFASGSPFAPVEYEGKTFVPGQSNNAYIFPGLGLGLVISGAVRVHEDMLLAASKALADQATQDNFEKGSIFPPFTSIRKISAHIAAAVAGKAYELGLATRLPPPSDLVKYAENCMYTPVYRNYR
notes: C4-NADP-malic enzyme (ZmC4-NADP-ME), plastidic C4 isoform of maize; construct of Alvarez et al. 2019; Vector pET16b::ZmC4-NADP-ME (Alvarez et al. 2019); also called C4-NADP-ME; ZmC4-NADP-ME; source: E. coli Rosetta2 (DE3) or ArcticExpress (DE3), purified (Ni-NTA)
As to B1, in data set [14], the “stoichiometry N” value amounted to 4.

B2: C4-NADP-ME from maize extracts (enzyme, UniProt P16243 63-636, looked up)
chain: MVSNAETETEKEQEEAAAASEELPVMPWATSVASGYTLLRDPHHNKGLAFTEEERDGHYLRGLLPPAVLSQELQIKKFMNTLRQYQTPLQRYIAMMNLQETDERLFYKLLIDNVVELLPFVYTPTVGEACQKYGSIFGRPQGLYVSLKDKGKVLEVLRNWPHRNIQVICVTDGERILGLGDLGCQGMGIPVGKLALYTALGGVDPSVCLPITIDVGTNNEFLLNDEFYIGLRQKRATGEEYDELIEEFMSAVKQFYGEKVLIQFEDFANHNAFDLLEKYSKSHLVFNDDIQGTASVVLAGLLAALKMVGGTLAEQTYLFLGAGEAGTGIAELIALEISKQTNAPIEECRKKVWLVDSKGLIVDSRKGSLQPFKKPWAHEHEPLKTLYDAVQSIKPTVLIGTSGVGRTFTKEIIEAMSSFNERPIIFSLSNPTSHSECTAEQAYTWSQGRSIFASGSPFAPVEYEGKTFVPGQSNNAYIFPGLGLGLVISGAVRVHEDMLLAASKALADQATQDNFEKGSIFPPFTSIRKISAHIAAAVAGKAYELGLATRLPPPSDLVKYAENCMYTPVYRNYR
notes: C4-NADP-malic enzyme, plastidic C4 isoform of maize, identified by mass spectrometry in an active band of a native gel; source: endogenous, extracts of maize etiolated leaves and roots
As for B2, the “stoichiometry N” value in [15] was 4.

The record behind these values is paper PMC13100509, “A milestone in C4 carbon concentration mechanism evolution: structural remodeling of NADP-malic enzyme in Poaceae” (Molecular Biology and Evolution, 2026).
